Data published in PMC12486124 (bioRxiv, 2025).

Target: reconstituted nucleosome (Xenopus laevis histone octamer on Widom 601 DNA) (Xenopus laevis)
Test: fluorescence polarisation

Kd: 0.12 ± 0.01 µM
B1: E2F1-DP2 DNA binding domains heterodimer (complex)
chain 1: not shown
chain 2: KNGKGLRHFSMKVCEKVQRKGTTSYNEVADELVSEFTNSNNHLAADSAYDQKNIRRRVYDALNVLMAMNIISKEKKEIKWIG
